Here are results for four proteins from PMC7133768.

Holding throughout (assay): oxygen consumption assay
Format in all cases: biochemical, Chloracidobacterium thermophilum

Substrate in series [1]: C[N+](C)(C)[C@@H](Cc1cnc[nH]1)C(=O)[O-]
Particulars: co-substrate L-Cys.

Substrate in series [2]: N[C@@H](CS)C(=O)O
Particulars: co-substrate hercynine.

Substrate in series [3]: N[C@@H](CCC(=O)N[C@@H](CS)C(=O)O)C(=O)O
Particulars: co-substrate hercynine.

Residue numbers refer to the chain shown, from its start. Numbers in names are those of the source.

B1: EgtBCth (Cabther_A1318) (Chloracidobacterium thermophilum B; A420Y/D52L) (protein)
chain: EAARSHPEPIQSGEVSDRKAWQRHYRAVRAVSEAICQPLETEDYVVQPMPLVSPPKWHLGHTSWFFETFILKSGLADYRPFHPRYDYIFNSYYEAVGARHPRPQRGLLTRPTVSEVYAYRAHVDAAVERFIAHSDTRTWAALQPILELGLHHEQQHQELLLTDIKAILATNPLDPVYRPQPQPLPSPVEQLSPTGDWHIVEGGRYAIGHAGRGFAFDNEGPRHDVLLRPCRIAARPVTNGEFLAFMADGGYRRPELWLSDGWAAVTARGWEAPLYWRQAADGTWETLTLHGVQPVAPYEPVCHISFYEADAYARWAGKRLPTEAEWEVVAARLPVTGNFYESGVLHPRPVSVSAAFYGDVWVWTASPYVGYPGFRPVSGALGEYNGKFMCNQMVLRGGSCATSLTHIRSTYRNFFPPDYRWQFTGVRLAEDMS
Regarding B1, in “oxygen consumption assay [1]”, the Km came to 23.3 ± 1.2 µM, the kcat was determined as 0.545 ± 0.005 s⁻¹ and the kcat/Km turned out to be 23300 ± 1170 M⁻¹ s⁻¹. Besides, in the series “oxygen consumption assay [2]”, the Km was found to be 48.7 ± 3.5 µM, the kcat turned out to be 0.545 ± 0.005 s⁻¹ and the kcat/Km is 11200 ± 667 M⁻¹ s⁻¹.

B2: EgtBCth (Cabther_A1318) (Chloracidobacterium thermophilum B; A420Y) (protein)
chain: B1 chain with L51D
With B2, in the series “oxygen consumption assay [1]”, the Michaelis-Menten constant (Km) was found to be 39.2 ± 1.6 µM and the kcat/Km was determined as 11700 ± 500 M⁻¹ s⁻¹. In “oxygen consumption assay [2]”, the Km was determined as 28.1 ± 1.8 µM and the kcat/Km worked out at 16300 ± 1000 M⁻¹ s⁻¹.

B3: EgtBCth (Cabther_A1318) (Chloracidobacterium thermophilum B) (protein)
chain: B1 chain with L51D, Y419A
B3: the Km in the series “oxygen consumption assay [1]” (Fe(II) enzyme) amounted to 87.7 ± 7.6 µM; in the series “oxygen consumption assay [2]”, 205 ± 18 µM. In addition, the kcat/Km in the series “oxygen consumption assay [2]” is 2170 ± 167 M⁻¹ s⁻¹; in “oxygen consumption assay [3]”, 50 ± 8.33 M⁻¹ s⁻¹.

B4: EgtBCth (Cabther_A1318) (Chloracidobacterium thermophilum B; D52L) (protein)
chain: B1 chain with Y419A
With B4, the Km in the series “oxygen consumption assay [1]” amounted to 13.2 ± 1.3 µM; in “oxygen consumption assay [2]”, 47.3 ± 2.4 µM.

As usually defined, the Km is the concentration of substrate that gives half-maximal velocity. As a reminder, the kcat is the number of substrate molecules converted per active site and unit of time at saturation. A word on the kcat/Km: it is the second-order rate constant that governs catalysis at low substrate concentration.
